The supplement of paper PMC12764529
± gives the half width of the 95% confidence interval.

Assay: folding stability dG unfold from chymotrypsin proteolysis; higher = more stable
In short: (§1)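 Unfolding free energy was derived, per protease or combined, by relating Bayesian-fitted K50 values from sequencing counts to a sequence-predicted unfolded-state K50 and a shared folded-state K50. The underlying digests exposed cysteine-free mini-proteins under 80 residues, in a PA-tagged cDNA display construct, to trypsin and chymotrypsin at 11 threefold-diluted concentrations and to a no-protease condition. A filter kept only designs with AlphaFold2 dimer inter-PAE above 15.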

Sequence | folding stability dG unfold [kcal/mol]
SAGGSALPPDAPFTVEREVPFTLPDGALVTLYYNPETGTVLVRFYPPDGGEVRVEAKAEEALALLSSAGGSA [r15_2_TrMRF] | 1.34 ± 0.06
SAGGSAGGSKWIKIMYMIPPGDPEEIIEKLLPPGYKIEEVEVQRMPGYFMVDITIRDEDPDAISAGGSAGGS [r12_445_TrROS] | 2.37 ± 0.16
SAGGSAGGSAGVKEGEEIEITLENGKTFTAKIEYDKETGYYKITIKDKKTNKEYEFVFKVSAGGSAGGSAGG [r11_960_TrROS_Hall] | 4.39 ± 0.17
SALGEEEVLRALKAAAAPLPKVEPVLRKVTVLVPETGEPFEVEVLAYRLENGEIFPVPAEATEALAEALASA [r9_1056_TrMRF] | -0.1 ± 0.41
MLTKVSTLTREDPSTGTTTTITVYKPPDGTLIVKVTTTTYSTTPDGTVTTTTSTTTVTLPPSVDVEKVFSSS [r1_243_JUSTAS] | 3.01 ± 0.056
SAGKKLIEAAKNNKKAVIPVKYKKYKITEKYKTKDGGTKYKAKLIEEKTYNVKLIKVDPKTGKIIIDPKSAG [r5_5_TrMRF] | 1.82 ± 0.28
SAGGMPKVPVTYTVTFTLKPDGSTLTVTETFPVPEPGKPVTKEEIKQRLLDKLPPSYTITSITITRASAGGS [r16_407_JUSTAS] | 2.21 ± 0.026
SAGGSAGGEPVKIEWEPIGRDPNGAFKFRLIIRDPDGTVQRTEIWINPNGGMQVETETIPPEDNSAGGSAGG [r6_263_TrROS] | 2.15 ± 0.085
SAGSIPLDIAKSLGGKTEVSSSPVPLGGGMTATLTTVTATLPDKIVTITITTLADPTVTEVTITTEPIKSAG [r5_323_JUSTAS] | 1.23 ± 0.039
SAGGSAGGSAGGEPEVEITIEVEERDGELVVRVTARFKDTDETITVEMTLEEVEALLKASAGGSAGGSAGGS [r10_1187_TrROS_Hall] | 2.17 ± 0.061
SMEDMSVEELLELLREKLREAREKGKSLEDIKITIVIVAETEEEKEAIAKALKEEFPEIKEIKIEVLPPESA [r9_341_TrROS_Hall] | 2.64 ± 0.15
SAGGSAGGSPMVVFEFKIKDPKIRKAIDEAKKDGDKSAEIPFPNGWPIRITEIEDNYIRITIWSAGGSAGGS [r12_334_TrROS] | 2.18 ± 0.14
SWYHIQFWLEGNSIEELMKWAKELAKQGNFEITKISNEHMHITIEIKLKPPPPPPPPPPKEEYDGDGKPKSA [r9_830_TrROS] | 2.37 ± 0.19
SAMLVITRPDGRPYLVRLKVDKVEPSPDGTLITVEFTLELFSPDGTPETFKGTLIFDPKTGKLVLKIDPSAG [r14_789_TrMRF] | 3.71 ± 0.014
SAGGSAGGSAMKRVTLTFPSTGKTLTFDFTTEEDIEAAIKAALGPEVDPAKVTVTVLPPGAASAGGSAGGSA [r18_350_JUSTAS] | 2.62 ± 0.054
SAGGSAGGMKVKIVSFDPENQEVVIYDEKTGKEIVVKAKSVEELKAALEKLGLEVEVEVLPPEESAGGSAGG [r6_27_TrROS_Hall] | 3.19 ± 0.26
SAGGPPGEEIPIMVRIKMRNPENGEEMELPITHTVKSKEDLKWAKKLVDEIAEEFREQGMKDVEIEIFSAGG [r13_360_TrROS] | 1.07 ± 0.21
SAGGSAVIVIETRADDPRLLEAIKKAREEGKPVVVRFPDGKALVFYPEGPVEEVDSPEQLKEAGFGSAGGSA [r15_94_TrMRF] | 1.716 ± 0.011
SAGGKVVPILIEGELTAEEIKALIPPGELAVLYDLETGEVRVFSPEDLDKIPSDVPLRFLLLIFRPDSAGGS [r8_66_TrMRF] | 4.31 ± 0.058
SALPPGAPPKPERLVLTLTVSEEEVKKGDLEKVRRLVEELVEALREAGFEVKEVEVVEEDGKLTVRIVLDSA [r9_75_TrROS_Hall] | 2.68 ± 0.17
SAGGVDPSKLTPLSTREVPVDDRRLLVTTYLTPDGKPLYTVTVLDAEGRPLGSELVPPEKVSADGRLESAGG [r13_447_JUSTAS] | 0.506 ± 0.11

Assay: folding stability dG unfold (combined trypsin and chymotrypsin); higher = more stable
In short: as §1

Sequence | folding stability dG unfold [kcal/mol]
SAGGSALPIETPSDGVVPYTDPVTGKTYTVTFRRDEGKTSFRVEEPESSATREVTEPVSVTEAVLTSAGGSA [r15_234_JUSTAS] | 0.000309 ± 0.084
SAGGSAGGSAGGSMTIIVKTEEEAKQLAERLKKELEELGLLENLKIEIKVIPEEDLPPESAGGSAGGSAGGS [r4_472_TrROS_Hall] | 2.09 ± 0.08
SAGGSASTPDGKTKTYTNTNPGATEEEVKPIAEEIAKEIAEKLGLDLSEIGISVSYDPNTGTISPLIGSAGG [r13_913_JUSTAS] | -0.105 ± 0.59
SAGGSAGPTTTPTTYARITATLRKGGETITVELEVPTSVVEEAVEALAKELGVEIEKVEVTLTEERSAGGSA [r15_535_JUSTAS] | 2.3 ± 0.08
SAGGPPGDPILLRISYTIRPNGKERTMDHEIPFKNPNQPITLEQIRKELRDALPPGYKITDVEIDVLSAGGS [r16_407_TrROS] | 0.444 ± 0.1
SMTLTIEVDPNDPAKVKALIDSTPPDTTVTLVFPQEDGSKPVKTITVKPPLEKPISPENMTPKNVAARKKSA [r9_1103_JUSTAS] | 0.118 ± 0.18
GFDEAELKKLLEEKAAELEKKGYKVLKTSIEPVPDGTYGGKIGNKTITHPTPNGLTYSVSVYYEKVSPKKKS [r1_31_JUSTAS] | 0.351 ± 0.16
SAGGSAGTITIMFPIPPGKEVKMKFLFYIPDGYIFNVDITQTGPGYITITIPIYRLPENAKDPDLISAGGSA [r15_909_TrROS] | 4.43 ± 0.26
SAGSMVEERVRELLRELDPERPWEIERLPDGTIVARDPETGRWYIFKVEPDGTVTLERVLSLEEYERLSSAG [r5_852_JUSTAS] | 4.42 ± 0.11
SAGGSAGGSAGGSSTILIPSSTSEEYAESLAKELKKKGNVKTSFDPSTGVLVLTLPGGSSSAGGSAGGSAGG [r7_219_JUSTAS] | -0.17 ± 0.21
SAGGSAGGSAGGKPKKVVIYIELTPEQEEAIKKGKSLEEVVEELIKEAEKKGLEVEIVGSAGGSAGGSAGGS [r10_890_TrROS_Hall] | 1.62 ± 0.14
SAGGMTLEITITFPGPEMLEEAKKIIDELGIELVNPTPNSLTVKAKGPEEVAKIKEEAKKLGFTVTGSAGGS [r16_88_JUSTAS] | 3.13 ± 0.14
SAGGSAGGSANFKILAVEVQPAGNGIMVRAIIEFPDGWIIKFSFWFRNDGIKINIEIVPLDDSAGGSAGGSA [r18_79_TrROS] | 5.68 ± 0.17
SAGGSAGGSAGGMPVTFTGENQPVEVLSVDPERPVVVVYYPPTGTLLVALPPTGKVFPVSAGGSAGGSAGGS [r10_440_TrMRF] | 0.18 ± 0.14
SAGFVPGKLKAVDPNGNEIDVIEIEELPNGKVIAKGKNKTNGFPYIATYDPVSGKVYIILPNGKVIEIGSAG [r5_809_TrMRF] | 1.55 ± 0.13
SAGGMLKFTDPKTGNEYTVTEYDPNTGVYLVTTTYPDGTTTTREFPGSLEDIVKHLEEEGYPTTVVGSAGGS [r16_748_JUSTAS] | 3.24 ± 0.069
SAGGSAMAIVEYDPDNRVRAIVYFPGEKRVALVEVDDDTATVTAVYDLSDDGVATYLDEATFEIGGSAGGSA [r2_60_TrMRF] | 0.922 ± 0.046
SAGGSAGGSAMETYEIEVNGKLITITRSEDGTYKITDKDTGKTITIPAEDLKKLKPGDKLLSAGGSAGGSAG [r3_256_TrROS_Hall] | 2.15 ± 0.14
SAGTTVTLTDPVTGNVTTITKDPTDPNLWTVTLPDGSSVTAKRSEIAKKLGLSPEKLLSDYPVPSVSLTSAG [r5_156_JUSTAS] | 1.94 ± 0.038
SAGGGPMPVEKEVEITLEVDPSDPASVRARLEALAASRGVEEITEITEETLPDGSRRVTAKVKWLLPVSAGG [r13_222_JUSTAS] | 0.875 ± 0.087
SAGGSAGGSAGGDKNDLSPGATISTYTNPGSFTVTLPTGETVTLPKTVTTTVTFFDSTNSAGGSAGGSAGGS [r10_643_JUSTAS] | 0.227 ± 0.08

Sequence | folding stability dG unfold [kcal/mol]
SAGGSALPPDAPFTVEREVPFTLPDGALVTLYYNPETGTVLVRFYPPDGGEVRVEAKAEEALALLSSAGGSA [r15_2_TrMRF] | 1.31 ± 0.039
SAGGSAGGSKWIKIMYMIPPGDPEEIIEKLLPPGYKIEEVEVQRMPGYFMVDITIRDEDPDAISAGGSAGGS [r12_445_TrROS] | 2.37 ± 0.21
SAGGSAGGSAGVKEGEEIEITLENGKTFTAKIEYDKETGYYKITIKDKKTNKEYEFVFKVSAGGSAGGSAGG [r11_960_TrROS_Hall] | 4.04 ± 0.22
SALGEEEVLRALKAAAAPLPKVEPVLRKVTVLVPETGEPFEVEVLAYRLENGEIFPVPAEATEALAEALASA [r9_1056_TrMRF] | -0.274 ± 0.19
MLTKVSTLTREDPSTGTTTTITVYKPPDGTLIVKVTTTTYSTTPDGTVTTTTSTTTVTLPPSVDVEKVFSSS [r1_243_JUSTAS] | 2.58 ± 0.12
SAGKKLIEAAKNNKKAVIPVKYKKYKITEKYKTKDGGTKYKAKLIEEKTYNVKLIKVDPKTGKIIIDPKSAG [r5_5_TrMRF] | 1.75 ± 0.92
SAGGMPKVPVTYTVTFTLKPDGSTLTVTETFPVPEPGKPVTKEEIKQRLLDKLPPSYTITSITITRASAGGS [r16_407_JUSTAS] | 2.13 ± 0.051
SAGGSAGGEPVKIEWEPIGRDPNGAFKFRLIIRDPDGTVQRTEIWINPNGGMQVETETIPPEDNSAGGSAGG [r6_263_TrROS] | 2.13 ± 0.14
SAGSIPLDIAKSLGGKTEVSSSPVPLGGGMTATLTTVTATLPDKIVTITITTLADPTVTEVTITTEPIKSAG [r5_323_JUSTAS] | 1.14 ± 0.13
SAGGSAGGSAGGEPEVEITIEVEERDGELVVRVTARFKDTDETITVEMTLEEVEALLKASAGGSAGGSAGGS [r10_1187_TrROS_Hall] | 2.37 ± 0.077
SMEDMSVEELLELLREKLREAREKGKSLEDIKITIVIVAETEEEKEAIAKALKEEFPEIKEIKIEVLPPESA [r9_341_TrROS_Hall] | 2.92 ± 0.26
SAGGSAGGSPMVVFEFKIKDPKIRKAIDEAKKDGDKSAEIPFPNGWPIRITEIEDNYIRITIWSAGGSAGGS [r12_334_TrROS] | 1.69 ± 0.2
SWYHIQFWLEGNSIEELMKWAKELAKQGNFEITKISNEHMHITIEIKLKPPPPPPPPPPKEEYDGDGKPKSA [r9_830_TrROS] | 2.22 ± 0.46
SAMLVITRPDGRPYLVRLKVDKVEPSPDGTLITVEFTLELFSPDGTPETFKGTLIFDPKTGKLVLKIDPSAG [r14_789_TrMRF] | 3.42 ± 0.075
SAGGSAGGSAMKRVTLTFPSTGKTLTFDFTTEEDIEAAIKAALGPEVDPAKVTVTVLPPGAASAGGSAGGSA [r18_350_JUSTAS] | 2.12 ± 0.3
SAGGSAGGMKVKIVSFDPENQEVVIYDEKTGKEIVVKAKSVEELKAALEKLGLEVEVEVLPPEESAGGSAGG [r6_27_TrROS_Hall] | 3.3 ± 0.39
SAGGPPGEEIPIMVRIKMRNPENGEEMELPITHTVKSKEDLKWAKKLVDEIAEEFREQGMKDVEIEIFSAGG [r13_360_TrROS] | 0.908 ± 0.15
SAGGSAVIVIETRADDPRLLEAIKKAREEGKPVVVRFPDGKALVFYPEGPVEEVDSPEQLKEAGFGSAGGSA [r15_94_TrMRF] | 1.94 ± 0.031
SAGGKVVPILIEGELTAEEIKALIPPGELAVLYDLETGEVRVFSPEDLDKIPSDVPLRFLLLIFRPDSAGGS [r8_66_TrMRF] | 3.92 ± 0.11
SALPPGAPPKPERLVLTLTVSEEEVKKGDLEKVRRLVEELVEALREAGFEVKEVEVVEEDGKLTVRIVLDSA [r9_75_TrROS_Hall] | 2.92 ± 0.36
SAGGVDPSKLTPLSTREVPVDDRRLLVTTYLTPDGKPLYTVTVLDAEGRPLGSELVPPEKVSADGRLESAGG [r13_447_JUSTAS] | 0.334 ± 0.066
